Earlier results as cited in PMC2483503.
Blank lines part the entries; values can stand above or below the substance they belong to.

Key:
Test in all cases: ITC
[1] = molecular target: FAK peptide (Homo sapiens) (UniProt Q05397)
[2] = molecular target: FAK peptide FAK peptide (proline-rich and pY motifs) (Homo sapiens) (UniProt Q05397)
[3] = molecular target: CD3 zeta ITAM N-terminal pY peptide ITAM N-terminal pY peptide (Homo sapiens) (UniProt P20963)
[4] = molecular target: CD3 zeta ITAM bisphosphopeptide ITAM bisphosphopeptide (Homo sapiens) (UniProt P20963)
[5] = molecular target: CD3 zeta ITAM C-terminal pY peptide ITAM C-terminal pY peptide (Homo sapiens) (UniProt P20963)
[6] = molecular target: FAK proline-rich peptide (PXXP) (Homo sapiens) (UniProt Q05397)

Chain of ZAP70 SH2 domains (P43403 1-259): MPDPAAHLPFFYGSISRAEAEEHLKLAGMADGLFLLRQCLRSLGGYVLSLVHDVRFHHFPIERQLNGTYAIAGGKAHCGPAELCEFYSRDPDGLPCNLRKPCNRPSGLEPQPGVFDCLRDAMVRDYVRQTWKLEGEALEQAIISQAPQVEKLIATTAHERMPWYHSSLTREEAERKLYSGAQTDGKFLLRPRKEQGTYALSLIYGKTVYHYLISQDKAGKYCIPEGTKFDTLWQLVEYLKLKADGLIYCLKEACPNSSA
Chain of Fyn SH3-SH2 (P06241 82-246): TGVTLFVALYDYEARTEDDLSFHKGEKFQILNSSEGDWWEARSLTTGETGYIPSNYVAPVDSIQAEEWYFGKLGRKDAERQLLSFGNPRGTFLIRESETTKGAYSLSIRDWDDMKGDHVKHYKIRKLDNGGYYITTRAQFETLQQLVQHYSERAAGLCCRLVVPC
Chain of FAK peptide (Homo sapiens) (Q05397 2-1052): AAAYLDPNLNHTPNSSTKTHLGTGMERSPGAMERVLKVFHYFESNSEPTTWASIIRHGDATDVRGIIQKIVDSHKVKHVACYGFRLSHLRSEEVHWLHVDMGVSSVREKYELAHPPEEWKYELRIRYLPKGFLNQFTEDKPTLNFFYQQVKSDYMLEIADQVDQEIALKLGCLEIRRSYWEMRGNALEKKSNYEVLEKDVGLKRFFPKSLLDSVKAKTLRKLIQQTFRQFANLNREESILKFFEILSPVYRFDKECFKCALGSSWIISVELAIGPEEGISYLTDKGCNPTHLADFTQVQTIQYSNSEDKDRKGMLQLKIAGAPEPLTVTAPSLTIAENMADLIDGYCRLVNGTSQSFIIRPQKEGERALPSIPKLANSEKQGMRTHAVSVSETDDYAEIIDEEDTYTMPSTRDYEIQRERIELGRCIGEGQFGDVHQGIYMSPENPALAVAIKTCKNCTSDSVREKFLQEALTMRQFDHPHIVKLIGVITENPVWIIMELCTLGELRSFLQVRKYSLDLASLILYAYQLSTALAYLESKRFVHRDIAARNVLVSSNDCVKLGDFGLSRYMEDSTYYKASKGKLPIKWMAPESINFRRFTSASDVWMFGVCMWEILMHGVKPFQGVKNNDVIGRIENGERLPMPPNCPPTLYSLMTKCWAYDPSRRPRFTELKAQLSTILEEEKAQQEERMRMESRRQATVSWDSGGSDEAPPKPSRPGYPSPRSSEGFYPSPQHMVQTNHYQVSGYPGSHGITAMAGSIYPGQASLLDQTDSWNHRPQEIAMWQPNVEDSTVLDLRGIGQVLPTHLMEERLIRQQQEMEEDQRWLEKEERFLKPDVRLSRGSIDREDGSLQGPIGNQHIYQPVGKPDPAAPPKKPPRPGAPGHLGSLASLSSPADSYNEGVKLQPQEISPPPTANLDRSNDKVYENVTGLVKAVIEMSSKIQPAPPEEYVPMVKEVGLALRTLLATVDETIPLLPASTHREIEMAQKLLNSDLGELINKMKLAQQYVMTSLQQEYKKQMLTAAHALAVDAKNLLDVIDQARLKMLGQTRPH
Chain of Fyn SH3 (P06241 79-146): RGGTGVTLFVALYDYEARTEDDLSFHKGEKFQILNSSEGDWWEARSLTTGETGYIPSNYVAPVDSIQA
Chain of FAK peptide FAK peptide (proline-rich and pY motifs) (Homo sapiens) (Q05397 368-403): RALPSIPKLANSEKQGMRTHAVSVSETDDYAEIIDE

- Kd [1]: 0.19 µM
- Kd [2]: 0.19 µM
Substance: Fyn SH3-SH2 (from UniProt P06241)

- Kd [3]: 142 µM
- Kd [4]: 0.032 µM
- Kd [5]: 333 µM
Substance: ZAP70 SH2 domains (from UniProt P43403)

- Kd [6]: 62 µM
Substance: Fyn SH3 (from UniProt P06241)
